The target in assay [1] is RNF167-ECD (transmembrane PA-TM-RING E3 ligase RNF167, extracellular domain) (human) (UniProt Q9H6Y7). The assay is described as follows: SPR; Biacore T100; biotinylated ligand captured on a streptavidin (SA) Series S chip (~100-200 RU); non-biotinylated analyte in twofold dilutions in HBS-P+; 60 s injection at 30 ul/min, 240 s dissociation; regeneration 2 x 10 sec 2M MgCl2; KD from the fit at equilibrium (steady state). Background: Surface plasmon resonance follows binding to a sensor surface in real time, without labels.

In assay [2] the target is T1, growth arrest specific 1 protein (human, UniProt P54826 40-317, biotin (biotinylated in vitro with BirA) where used on beads or as tetramer).
T1 construct: growth arrest specific 1, human; also called GAS1; source: Expi293F, purified (Ni-NTA, SEC); not shown: AviTag, C-terminal, kept
T1 sequence (looked up): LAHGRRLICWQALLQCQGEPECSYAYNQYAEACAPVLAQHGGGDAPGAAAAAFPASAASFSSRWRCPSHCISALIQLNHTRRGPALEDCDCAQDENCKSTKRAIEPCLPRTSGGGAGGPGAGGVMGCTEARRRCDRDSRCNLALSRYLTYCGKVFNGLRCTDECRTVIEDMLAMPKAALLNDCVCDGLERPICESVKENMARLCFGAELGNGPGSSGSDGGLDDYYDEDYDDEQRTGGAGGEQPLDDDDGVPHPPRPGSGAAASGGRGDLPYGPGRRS
The assay is described as follows: SPR; Biacore T100; biotinylated receptor ECD or hit protein captured on a streptavidin chip (~100-200 RU), non-biotinylated secreted ligand as analyte in twofold dilutions; HBS-P+ buffer; 1:1 Langmuir model or equilibrium fit. The note with it: both partners purified.

The target in the next assay is T2, PTPRD ECD (human, UniProt P23468 21-1265, biotin where captured on the streptavidin chip).
T2 construct: PTPRD, human, extracellular domain; construct of the ECD is not described; source: Expi293F, purified (Ni-NTA, SEC)
T2 sequence (P23468 21-1265): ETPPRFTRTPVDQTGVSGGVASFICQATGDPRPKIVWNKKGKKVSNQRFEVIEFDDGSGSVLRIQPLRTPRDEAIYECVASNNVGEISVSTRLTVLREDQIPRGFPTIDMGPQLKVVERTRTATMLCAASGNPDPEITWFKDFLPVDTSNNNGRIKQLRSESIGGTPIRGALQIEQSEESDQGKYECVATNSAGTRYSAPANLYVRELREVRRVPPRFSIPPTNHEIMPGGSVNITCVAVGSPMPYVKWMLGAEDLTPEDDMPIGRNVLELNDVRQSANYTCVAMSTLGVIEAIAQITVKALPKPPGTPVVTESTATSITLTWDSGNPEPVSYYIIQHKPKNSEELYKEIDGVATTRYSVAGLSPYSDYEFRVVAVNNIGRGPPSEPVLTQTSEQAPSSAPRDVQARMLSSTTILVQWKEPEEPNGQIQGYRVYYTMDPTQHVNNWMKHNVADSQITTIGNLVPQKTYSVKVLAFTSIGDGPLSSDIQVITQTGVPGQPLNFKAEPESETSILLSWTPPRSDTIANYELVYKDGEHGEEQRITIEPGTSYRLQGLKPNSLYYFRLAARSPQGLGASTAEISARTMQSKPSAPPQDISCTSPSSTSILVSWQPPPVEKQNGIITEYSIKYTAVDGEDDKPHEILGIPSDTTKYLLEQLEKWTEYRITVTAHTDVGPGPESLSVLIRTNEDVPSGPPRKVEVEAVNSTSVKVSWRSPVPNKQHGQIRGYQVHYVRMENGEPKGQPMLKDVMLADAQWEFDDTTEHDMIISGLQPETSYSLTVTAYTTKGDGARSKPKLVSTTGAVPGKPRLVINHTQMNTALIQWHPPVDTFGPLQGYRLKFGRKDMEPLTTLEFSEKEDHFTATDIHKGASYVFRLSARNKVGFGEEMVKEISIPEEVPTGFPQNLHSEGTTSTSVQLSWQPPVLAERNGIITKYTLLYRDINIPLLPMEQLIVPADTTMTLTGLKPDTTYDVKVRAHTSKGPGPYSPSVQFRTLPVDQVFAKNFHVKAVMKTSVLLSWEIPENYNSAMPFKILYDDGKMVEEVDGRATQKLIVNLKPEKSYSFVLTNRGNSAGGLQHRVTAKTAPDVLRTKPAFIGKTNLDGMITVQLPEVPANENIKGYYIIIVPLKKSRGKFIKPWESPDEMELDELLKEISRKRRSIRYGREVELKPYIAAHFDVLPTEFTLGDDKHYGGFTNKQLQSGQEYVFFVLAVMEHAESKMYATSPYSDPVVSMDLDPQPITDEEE
Description: SPR; Biacore T100; biotinylated secreted ligand (OMG, PTN or MDK) captured on a streptavidin chip, receptor ECD as analyte; HBS-P+ buffer. The note with it: both partners purified.

Another assay addresses T3, PTPRF ECD (human, UniProt P10586 30-1263, biotin where captured on the streptavidin chip).
T3 construct: PTPRF, human, extracellular domain; construct of the ECD is not described; also called PRPRF; source: Expi293F, purified (Ni-NTA, SEC)
Described as above. As to conditions: both partners purified.

A further assay concerns the target T4, PTPRS ECD (human, UniProt Q13332 30-1282, biotin where captured on the streptavidin chip).
T4 construct: PTPRS, human, extracellular domain; construct of the ECD is not described; source: Expi293F, purified (Ni-NTA, SEC)
T4 sequence (looked up): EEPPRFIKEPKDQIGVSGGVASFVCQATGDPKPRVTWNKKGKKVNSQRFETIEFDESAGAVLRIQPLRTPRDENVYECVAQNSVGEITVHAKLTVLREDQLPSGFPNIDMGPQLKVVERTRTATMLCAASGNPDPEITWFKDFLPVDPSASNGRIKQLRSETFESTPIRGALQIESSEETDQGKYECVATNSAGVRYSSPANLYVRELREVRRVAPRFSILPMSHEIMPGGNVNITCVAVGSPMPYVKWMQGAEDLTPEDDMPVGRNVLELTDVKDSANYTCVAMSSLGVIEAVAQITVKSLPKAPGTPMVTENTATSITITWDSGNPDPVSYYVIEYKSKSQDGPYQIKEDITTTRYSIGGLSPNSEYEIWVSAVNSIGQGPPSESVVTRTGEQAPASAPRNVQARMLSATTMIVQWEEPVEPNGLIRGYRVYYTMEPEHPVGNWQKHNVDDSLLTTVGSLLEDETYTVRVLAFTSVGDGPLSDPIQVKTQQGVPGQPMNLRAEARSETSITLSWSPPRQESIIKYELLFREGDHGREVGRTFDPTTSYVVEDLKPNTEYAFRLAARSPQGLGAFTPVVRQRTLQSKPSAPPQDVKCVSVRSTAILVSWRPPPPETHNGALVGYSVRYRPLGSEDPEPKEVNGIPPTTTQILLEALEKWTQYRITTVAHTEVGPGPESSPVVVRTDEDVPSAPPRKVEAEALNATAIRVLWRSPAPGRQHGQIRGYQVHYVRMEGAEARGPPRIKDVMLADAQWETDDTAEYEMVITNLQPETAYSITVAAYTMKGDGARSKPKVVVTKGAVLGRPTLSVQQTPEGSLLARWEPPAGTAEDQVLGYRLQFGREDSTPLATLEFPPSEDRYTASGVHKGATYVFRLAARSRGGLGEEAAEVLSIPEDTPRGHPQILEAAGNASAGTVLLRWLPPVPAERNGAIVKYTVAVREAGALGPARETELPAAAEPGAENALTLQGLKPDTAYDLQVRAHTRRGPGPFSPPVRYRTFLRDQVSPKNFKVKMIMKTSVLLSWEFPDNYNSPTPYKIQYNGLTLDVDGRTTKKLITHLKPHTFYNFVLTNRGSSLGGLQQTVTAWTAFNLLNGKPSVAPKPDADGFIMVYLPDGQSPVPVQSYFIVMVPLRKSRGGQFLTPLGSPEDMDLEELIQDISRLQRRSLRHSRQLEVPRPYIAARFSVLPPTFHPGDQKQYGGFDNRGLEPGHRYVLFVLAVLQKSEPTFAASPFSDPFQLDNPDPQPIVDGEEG
The assay is described as above. As to conditions: both partners purified.

The target in assay [3] is T5, human PTPRU-ECD (human, UniProt Q92729 19-749, biotin where captured on the streptavidin chip).
T5 chain: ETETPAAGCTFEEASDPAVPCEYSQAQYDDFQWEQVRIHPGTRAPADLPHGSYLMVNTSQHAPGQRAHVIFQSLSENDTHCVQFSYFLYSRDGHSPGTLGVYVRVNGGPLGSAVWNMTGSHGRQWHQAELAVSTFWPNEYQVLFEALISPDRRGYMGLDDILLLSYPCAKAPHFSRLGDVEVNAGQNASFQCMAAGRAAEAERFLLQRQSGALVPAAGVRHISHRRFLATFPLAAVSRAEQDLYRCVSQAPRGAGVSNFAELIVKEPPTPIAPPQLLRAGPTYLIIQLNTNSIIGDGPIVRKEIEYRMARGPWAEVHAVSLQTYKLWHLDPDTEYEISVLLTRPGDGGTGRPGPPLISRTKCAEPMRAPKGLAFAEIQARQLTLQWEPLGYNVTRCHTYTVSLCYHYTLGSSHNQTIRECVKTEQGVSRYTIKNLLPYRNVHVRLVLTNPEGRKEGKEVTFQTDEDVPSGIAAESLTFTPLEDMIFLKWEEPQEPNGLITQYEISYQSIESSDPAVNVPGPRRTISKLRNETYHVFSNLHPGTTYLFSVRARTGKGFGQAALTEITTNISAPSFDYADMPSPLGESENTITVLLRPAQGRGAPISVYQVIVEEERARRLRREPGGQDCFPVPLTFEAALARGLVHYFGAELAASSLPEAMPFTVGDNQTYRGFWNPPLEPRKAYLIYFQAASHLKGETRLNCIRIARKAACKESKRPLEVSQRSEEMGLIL
Description: SPR.

Assay [4] has as its target T6, human PTPRU-ECD (human, UniProt Q92729 19-749, biotin where captured on the streptavidin chip).
T6 construct: PTPRU, human, extracellular domain; construct of the ECD is not described; source: Expi293F, purified (Ni-NTA, SEC)
T6 sequence (looked up): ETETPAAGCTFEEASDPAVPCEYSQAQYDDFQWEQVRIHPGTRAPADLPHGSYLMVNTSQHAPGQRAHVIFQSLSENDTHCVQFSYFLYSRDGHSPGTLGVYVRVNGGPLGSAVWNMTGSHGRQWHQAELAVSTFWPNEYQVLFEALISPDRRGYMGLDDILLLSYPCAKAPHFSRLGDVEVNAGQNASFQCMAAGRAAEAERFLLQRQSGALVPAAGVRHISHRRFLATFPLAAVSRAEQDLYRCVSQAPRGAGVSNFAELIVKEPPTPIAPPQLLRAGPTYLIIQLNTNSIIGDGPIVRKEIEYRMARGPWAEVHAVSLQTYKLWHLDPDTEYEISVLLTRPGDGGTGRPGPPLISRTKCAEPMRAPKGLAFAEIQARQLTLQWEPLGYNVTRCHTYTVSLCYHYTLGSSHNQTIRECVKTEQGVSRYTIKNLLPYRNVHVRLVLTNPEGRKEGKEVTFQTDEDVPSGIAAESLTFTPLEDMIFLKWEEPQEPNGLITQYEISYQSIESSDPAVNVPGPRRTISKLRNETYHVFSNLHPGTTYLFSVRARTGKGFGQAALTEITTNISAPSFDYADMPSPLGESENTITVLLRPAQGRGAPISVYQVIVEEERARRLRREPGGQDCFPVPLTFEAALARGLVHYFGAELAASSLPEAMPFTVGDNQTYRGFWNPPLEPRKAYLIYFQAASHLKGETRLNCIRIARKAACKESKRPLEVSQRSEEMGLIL
Description: SPR; Biacore T100; biotinylated receptor ECD or hit protein captured on a streptavidin chip (~100-200 RU), non-biotinylated secreted ligand as analyte in twofold dilutions; HBS-P+ buffer; 1:1 Langmuir model or equilibrium fit. As to conditions: both partners purified.

In general, Kd refers to the free concentration of one partner at which half of the binding sites on the other are occupied at equilibrium, for simple one-to-one binding. A low value points to a tighter complex. A word on the koff: it is a measure of how fast the partners let go of each other.

In assay [1], “TAFA-2 (FAM19A2; chemokine-like family member 2) (from UniProt Q8N3H0 31-131) (ligand)” registered a dissociation constant Kd of 314000 nM.

B1: PTPRA-ECD (domain or fragment, human, UniProt P18433 20-151, looked up)
chain: NNATTVAPSVGITRLINSSTAEPVKEEAKTSNPTSSLTSLSVAPTFSPNITLGPTYLTTVNSSDSDNGTTRTASTNSIGITISPNGTWLPDNQFTDARTEPWEGNSSTAATTPETFPPSGNSDSKDRRDETP
modifications: biotin (captured on the streptavidin chip)
notes: PTPRA, human, extracellular domain; construct of the ECD is not described; source: Expi293F, purified (Ni-NTA, SEC)
In turn, B1 yielded a dissociation constant (Kd) in assay [2] of roughly 1000 nM.

B2: oligodendrocyte-myelin glycoprotein (ligand, human, UniProt P23515 25-417, looked up)
chain: ICPLQCICTERHRHVDCSGRNLSTLPSGLQENIIHLNLSYNHFTDLHNQLTQYTNLRTLDISNNRLESLPAHLPRSLWNMSAANNNIKLLDKSDTAYQWNLKYLDVSKNMLEKVVLIKNTLRSLEVLNLSSNKLWTVPTNMPSKLHIVDLSNNSLTQILPGTLINLTNLTHLYLHNNKFTFIPDQSFDQLFQLQEITLYNNRWSCDHKQNITYLLKWMMETKAHVIGTPCSTQISSLKEHNMYPTPSGFTSSLFTVSGMQTVDTINSLSVVTQPKVTKIPKQYRTKETTFGATLSKDTTFTSTDKAFVPYPEDTSTETINSHEAAAATLTIHLQDGMVTNTSLTSSTKSSPTPMTLSITSGMPNNFSEMPQQSTTLNLWREETTTNVKTPLPS
modifications: biotin (biotinylated in vitro with BirA) where used on beads or captured on the chip
notes: oligodendrocyte-myelin glycoprotein, human; also called OMG; source: Expi293F, purified (Ni-NTA, SEC); not shown: AviTag, C-terminal, kept
Regarding B2, the binding result with PTPRD ECD, with PTPRF ECD and with PTPRS ECD was “binds” in each case. The molecule further came in with an off-rate (koff) with human PTPRU-ECD [3] of 0.00042 s⁻¹. Moreover, the Kd in the assay with human PTPRU-ECD [4] is roughly 70 nM.

The values are drawn from publication PMC9578707, “Identification of orphan ligand-receptor relationships using a cell-based CRISPRa enrichment screening platform” (eLife, 2022).
